Source: patent publication US20140127815A1

Target: GPIba (CD42b) (human) (UniProt P07359)
Assay: cell-based or functional assay

UniProt P07359, sequence (P07359 17-652): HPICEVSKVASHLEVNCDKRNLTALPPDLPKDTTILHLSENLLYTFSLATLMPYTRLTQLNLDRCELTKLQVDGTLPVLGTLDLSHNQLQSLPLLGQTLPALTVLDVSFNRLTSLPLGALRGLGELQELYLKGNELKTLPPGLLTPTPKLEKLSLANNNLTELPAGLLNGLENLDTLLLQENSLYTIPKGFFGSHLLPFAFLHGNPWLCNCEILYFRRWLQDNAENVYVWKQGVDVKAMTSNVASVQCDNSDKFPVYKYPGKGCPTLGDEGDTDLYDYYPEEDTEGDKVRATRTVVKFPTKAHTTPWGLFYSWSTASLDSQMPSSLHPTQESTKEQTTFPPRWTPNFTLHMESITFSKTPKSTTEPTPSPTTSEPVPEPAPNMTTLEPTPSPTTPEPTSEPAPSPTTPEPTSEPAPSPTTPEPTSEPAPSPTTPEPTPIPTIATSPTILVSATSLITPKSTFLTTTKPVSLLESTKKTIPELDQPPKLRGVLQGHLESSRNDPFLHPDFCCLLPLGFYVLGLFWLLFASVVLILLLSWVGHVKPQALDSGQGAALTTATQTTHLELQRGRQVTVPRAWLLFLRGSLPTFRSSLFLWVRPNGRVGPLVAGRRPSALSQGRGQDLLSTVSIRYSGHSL

HIP1 antibody was tested, and the ristocetin agglutination reaction of human peripheral blood platelets (maximum light transmission) was > 10 µg/mL.
